Blank lines part the entries; values can stand above or below the binder they belong to.
Tests used:
[1] = biological target: T1, human B7-4M (B7-4 membrane form) expressed on transfected COS or CHO cells (human, UniProt Q9NZQ7 19-290); assay: flow cytometry on human B7-4 CHO cells
T1 construct: Cell-surface form on transiently transfected COS cells or on CHO transfectants; also called B7-4M (292); COS cells expressing B7-4M

[2] = biological target: T2, soluble human B7-4.Ig / B7-4-Fc fusion protein (Example 11) (human, UniProt Q9NZQ7 19-238); assay: BIACORE, PD-1-Fc immobilized, concentrated COS cell medium injected
T2 construct: not shown: Fc/Ig portion

[3] = biological target: T3, human PD-1-Fc (extracellular region of human PD-1 fused to hinge-CH2-CH3 of human immunoglobulin gamma 1) (human, UniProt P01857 99-330 = IgG part); assay: BIACORE, PD-1-Fc immobilized
T3 construct: domain: hinge-CH2-CH3; also called PD-1-Fc (human Ig gamma1); Human PD-1 linked to IgG1

[4] = biological target: T1, human B7-4M (B7-4 membrane form) …; assay: FACS on B7-4M-transfected COS cells
Experimental: COS cells were transfected with either vector DNA (pcDNAI), or an expression plasmid containing the B7-4M cDNA. After 72 hours, the transfected COS cells were detached by incubation in PBS containing 0.5 mM EDTA for 30 min. at 37° C.
The ability of COS cells expressing B7-4M to bind to various T cell receptors and antibodies was tested. […] The ability of COS cells expressing B7-4M to bind to IgG and murine ICOS-his fusion protein was also tested.

T3 sequence (P01857 other isoform, or with tags, fused parts or gaps limits assumed): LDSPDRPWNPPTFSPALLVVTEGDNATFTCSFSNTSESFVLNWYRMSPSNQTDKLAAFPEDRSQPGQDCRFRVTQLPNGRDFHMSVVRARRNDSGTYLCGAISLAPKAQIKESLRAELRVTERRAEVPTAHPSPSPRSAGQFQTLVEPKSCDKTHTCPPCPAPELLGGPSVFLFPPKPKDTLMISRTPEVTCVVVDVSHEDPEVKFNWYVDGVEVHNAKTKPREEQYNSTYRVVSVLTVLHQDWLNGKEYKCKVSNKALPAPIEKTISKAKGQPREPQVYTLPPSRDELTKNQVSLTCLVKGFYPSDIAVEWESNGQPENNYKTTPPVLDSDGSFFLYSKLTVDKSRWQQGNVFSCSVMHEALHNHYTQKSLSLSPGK
T1 sequence (Q9NZQ7 19-290): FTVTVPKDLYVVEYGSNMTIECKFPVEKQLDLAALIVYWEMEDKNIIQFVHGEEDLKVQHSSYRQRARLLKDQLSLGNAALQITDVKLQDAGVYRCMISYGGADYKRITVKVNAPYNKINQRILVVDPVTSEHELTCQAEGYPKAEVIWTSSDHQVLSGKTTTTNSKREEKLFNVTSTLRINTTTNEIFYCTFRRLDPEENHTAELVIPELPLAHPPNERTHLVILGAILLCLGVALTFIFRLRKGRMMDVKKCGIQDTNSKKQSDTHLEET
T2 sequence (Q9NZQ7 19-238): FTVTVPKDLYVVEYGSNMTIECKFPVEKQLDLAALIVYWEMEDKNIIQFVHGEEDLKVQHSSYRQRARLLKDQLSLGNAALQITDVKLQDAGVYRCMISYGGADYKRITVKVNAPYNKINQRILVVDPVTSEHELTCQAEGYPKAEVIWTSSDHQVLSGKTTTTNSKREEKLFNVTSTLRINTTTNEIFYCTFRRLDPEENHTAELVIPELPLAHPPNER

- binding result [1]: binds
- binding result [2]: binds
B1: murine PD-1-Fc / murine PD-1.Ig fusion protein (Fc fusion, UniProt Q02242 25-169, looked up)
chain: LEVPNGPWRSLTFYPAWLTVSEGANATFTCSLSNWSEDLMLNWNRLSPSNQTEKQAAFCNGLSQPVQDARFQIIQLPNRHDFHMNILDTRRNDSGIYLCGAISLHPKAKIEESPGAELVVTERILETSTRYPSPSPKPEGRFQGM
notes: also called mouse PD-1; not shown: Fc/Ig portion

- binding result [3]: no binding
B2: soluble form of human B7-2 (ligand)
chain: APLKIQAYFNETADLPCQFANSQNQSLSELVVFWQDQENLVLNEVYLGKEKFDSVHSKYMGRTSFDSDSWTLRLHNLQIKDKGLYQCIIHHKKPTGMIRIHQMNSELSVLANFSQPEIVPISNITENVYINLTCSSIHGYPEPKKMSVLLRTKNSTIEYDGVMQKSQDNVTELYDVSISLSVSFPDVTSNMTIFCILETDKTRLLSSPFSIELEDPQPPPDHIP
notes: also called soluble forms of B7-2

- binding result [4]: no binding
B3: murine ICOS-his fusion protein (receptor, UniProt Q9WVS0 21-144, looked up)
chain: EINGSADHRMFSFHNGGVQISCKYPETVQQLKMRLFREREVLCELTKTKGSGNAVSIKNPMLCLYHLSNNSVSFFLNNPDSSQGSYYFCSLSIFDPPPFQERNLSGGYLHIYESQLCCQLKLWL
notes: not shown: his tag

- binding result [3]: no binding
B4: soluble form of human B7-1 (ligand)
chain: VIHVTKEVKEVATLSCGHNVSVEELAQTRIYWQKEKKMVLTMMSGDMNIWPEYKNRTIFDITNNLSIVILALRPSDEGTYECVVLKYEKDAFKREHLAEVTLSVKADFPTPSISDFEIPTSNIRRIICSTSGGFPEPHLSWLENGEELNAINTTVSQDPETELYAVSSKLDFNMTTNHSFMCLIKYGHLRVNQTFNWNTTKQEHFPDN
notes: also called soluble forms of B7-1
